Source: patent US7754689B2, “Finger-1 peptide analogs of the TGF-β superfamily” (Wyeth LLC, priority 2006, dated 2010)
Values joined by “and” are separate entries in the source; they are usually repeats but may differ in a detail not shown here. Equal entries are not always repeated.

Experiment: BMP solubility screen: A320 turbidity of BMP-12 solutions
Format: physicochemical
Conditions: 50 mM Tris pH 8, 0.5 mg/mL BMP-12
Experimental: BMP Solubility Screen—A Tecan liquid-handling robot was used to mix a master plate of reagents, 800 μL×1.25 concentration (for each solution; see Tables 2 and 3), each in 50 mM Tris buffer at pH 8. An eight-channel pipettor was used to transfer 80 μL of material from the master plate into a half-area UV microplate, from which A320 was read from each sample to define a blank. A repeat-pipettor was used to add 20 μL of 2.5 mg/mL BMP-12 in 0.1% TFA to make a 0.5 mg/mL solution, which was then agitated at 14000 rpm. The UV absorption (A320) was read and the blank absorption subtracted to determine solubility. The procedure was repeated with a wider range of 2-methyl-2,4-pentanediol (MPD) concentrations and a finer set of salt concentrations (Table 4).

B1: BMP-12: Bone Morphogenic Protein, member of the TGF-β superfamily; tested in solution and immobilized on Sepharose beads as affinity ligand (protein)
chain: TALAGTRTAQGSGGGAGRGHGRRGRSRCSRKPLHVDFKELGWDDWIIAPLDYEAYHCEGLCDFPLRSHLEPTNHAIIQTLLNSMAPDAAPASCCVPARLSPISILYIDAANNVVYKQYEDMVVEACGCR
NaCl 0 M, 1-propanol 0%
  A320 minus blank (turbidity): 1.724
NaCl 0 M, 1-propanol 2.5%
  A320 minus blank (turbidity): 1.848
NaCl 0 M, 1-propanol 5%
  A320 minus blank (turbidity): 2.134
NaCl 0 M, 1-propanol 10%
  A320 minus blank (turbidity): 2.000
NaCl 0 M, 1-propanol 15%
  A320 minus blank (turbidity): 3.172
NaCl 0 M, 1-propanol 25%
  A320 minus blank (turbidity): 1.419
NaCl 0 M, 2-methyl-2,4-pentanediol 2.5%
  A320 minus blank (turbidity): 1.936
NaCl 0 M, 2-methyl-2,4-pentanediol 5%
  A320 minus blank (turbidity): 2.122
NaCl 0 M, 2-methyl-2,4-pentanediol 10%
  A320 minus blank (turbidity): 2.148
NaCl 0 M, 2-methyl-2,4-pentanediol 15%
  A320 minus blank (turbidity): 2.035
NaCl 0 M, 2-methyl-2,4-pentanediol 20%
  A320 minus blank (turbidity): 2.136
NaCl 0 M, 2-methyl-2,4-pentanediol 25%
  A320 minus blank (turbidity): 2.631
NaCl 0.00 M, 2-methyl-2,4-pentanediol 30%
  A320 minus blank (turbidity): 3.443
NaCl 0.00 M, 2-methyl-2,4-pentanediol 35%
  A320 minus blank (turbidity): 3.006
NaCl 0.00 M, 2-methyl-2,4-pentanediol 40%
  A320 minus blank (turbidity): 3.519
NaCl 0.00 M, 2-methyl-2,4-pentanediol 45%
  A320 minus blank (turbidity): 3.308
NaCl 0.05 M, 2-methyl-2,4-pentanediol 25%
  A320 minus blank (turbidity): 1.994
NaCl 0.05 M, 2-methyl-2,4-pentanediol 30%
  A320 minus blank (turbidity): 0.979
NaCl 0.05 M, 2-methyl-2,4-pentanediol 35%
  A320 minus blank (turbidity): 0.376
NaCl 0.05 M, 2-methyl-2,4-pentanediol 40%
  A320 minus blank (turbidity): 0.330
NaCl 0.05 M, 2-methyl-2,4-pentanediol 45%
  A320 minus blank (turbidity): 0.318
NaCl 0.1 M, 1-propanol 0%
  A320 minus blank (turbidity): 1.745
NaCl 0.1 M, 1-propanol 2.5%
  A320 minus blank (turbidity): 2.135
NaCl 0.1 M, 1-propanol 5%
  A320 minus blank (turbidity): 2.212
NaCl 0.1 M, 1-propanol 10%
  A320 minus blank (turbidity): 1.945
NaCl 0.1 M, 1-propanol 15%
  A320 minus blank (turbidity): 3.199
NaCl 0.1 M, 1-propanol 25%
  A320 minus blank (turbidity): 0.104
NaCl 0.1 M, 2-methyl-2,4-pentanediol 2.5%
  A320 minus blank (turbidity): 1.900
NaCl 0.1 M, 2-methyl-2,4-pentanediol 5%
  A320 minus blank (turbidity): 2.338
NaCl 0.1 M, 2-methyl-2,4-pentanediol 10%
  A320 minus blank (turbidity): 2.341
NaCl 0.1 M, 2-methyl-2,4-pentanediol 15%
  A320 minus blank (turbidity): 2.287
NaCl 0.1 M, 2-methyl-2,4-pentanediol 20%
  A320 minus blank (turbidity): 2.573
NaCl 0.1 M, 2-methyl-2,4-pentanediol 25%
  A320 minus blank (turbidity): 0.715 and 0.626
NaCl 0.10 M, 2-methyl-2,4-pentanediol 30%
  A320 minus blank (turbidity): 0.206
NaCl 0.10 M, 2-methyl-2,4-pentanediol 35%
  A320 minus blank (turbidity): 0.150
NaCl 0.10 M, 2-methyl-2,4-pentanediol 40%
  A320 minus blank (turbidity): 0.083
NaCl 0.10 M, 2-methyl-2,4-pentanediol 45%
  A320 minus blank (turbidity): 0.087
NaCl 0.25 M, 1-propanol 0%
  A320 minus blank (turbidity): 1.804
NaCl 0.25 M, 1-propanol 2.5%
  A320 minus blank (turbidity): 2.397
NaCl 0.25 M, 1-propanol 5%
  A320 minus blank (turbidity): 2.300
NaCl 0.25 M, 1-propanol 10%
  A320 minus blank (turbidity): 2.105
NaCl 0.25 M, 1-propanol 15%
  A320 minus blank (turbidity): 1.392
NaCl 0.25 M, 1-propanol 25%
  A320 minus blank (turbidity): 0.022
NaCl 0.25 M, 2-methyl-2,4-pentanediol 2.5%
  A320 minus blank (turbidity): 2.061
NaCl 0.25 M, 2-methyl-2,4-pentanediol 5%
  A320 minus blank (turbidity): 2.399
NaCl 0.25 M, 2-methyl-2,4-pentanediol 10%
  A320 minus blank (turbidity): 2.434
NaCl 0.25 M, 2-methyl-2,4-pentanediol 15%
  A320 minus blank (turbidity): 2.433
NaCl 0.25 M, 2-methyl-2,4-pentanediol 20%
  A320 minus blank (turbidity): 1.006
NaCl 0.25 M, 2-methyl-2,4-pentanediol 30%
  A320 minus blank (turbidity): −0.015
NaCl 0.25 M, 2-methyl-2,4-pentanediol 35%
  A320 minus blank (turbidity): −0.065
NaCl 0.25 M, 2-methyl-2,4-pentanediol 40%
  A320 minus blank (turbidity): 0.015
NaCl 0.25 M, 2-methyl-2,4-pentanediol 45%
  A320 minus blank (turbidity): −0.012
NaCl 0.5 M, 1-propanol 0%
  A320 minus blank (turbidity): 1.953
NaCl 0.5 M, 1-propanol 2.5%
  A320 minus blank (turbidity): 2.170
NaCl 0.5 M, 1-propanol 5%
  A320 minus blank (turbidity): 1.629
NaCl 0.5 M, 1-propanol 10%
  A320 minus blank (turbidity): 1.313
NaCl 0.5 M, 1-propanol 15%
  A320 minus blank (turbidity): 0.305
NaCl 0.5 M, 1-propanol 25%
  A320 minus blank (turbidity): −0.001
NaCl 0.5 M, 2-methyl-2,4-pentanediol 2.5%
  A320 minus blank (turbidity): 2.045
